The labels stand for the following.
B1: FabF (E. coli ketoacyl synthase) (enzyme, UniProt P0AAI5 1-413, looked up)
chain: MSKRRVVVTGLGMLSPVGNTVESTWKALLAGQSGISLIDHFDTSAYATKFAGLVKDFNCEDIISRKEQRKMDAFIQYGIVAGVQAMQDSGLEITEENATRIGAAIGSGIGGLGLIEENHTSLMNGGPRKISPFFVPSTIVNMVAGHLTIMYGLRGPSISIATACTSGVHNIGHAARIIAYGDADVMVAGGAEKASTPLGVGGFGAARALSTRNDNPQAASRPWDKERDGFVLGDGAGMLVLEEYEHAKKRGAKIYAELVGFGMSSDAYHMTSPPENGAGAALAMANALRDAGIEASQIGYVNAHGTSTPAGDKAEAQAVKTIFGEAASRVLVSSTKSMTGHLLGAAGAVESIYSILALRDQAVPPTINLDNPDEGCDLDFVPHEARQVSGMEYTLCNSFGFGGTNGSLIFKKI
notes: E. coli ketoacyl synthase FabF; Sediments mostly as a dimer in SV-AUC; also called KS; E. coli KS FabF; source: E. coli BL21, purified (Ni-NTA)
B2: holo-AcpP (E. coli FAS acyl carrier protein, 4'-phosphopantetheine arm installed), P0A6A8 1-78 (natural protein)
chain: MSTIEERVKKIIGEQLGVKQEEVTNNASFVEDLGADSLDTVELVMALEEEFDTEIPDEEAEKITTVQAAIDYINGHQA
modifications: here or on the partner: 4'-phosphopantetheine (Ppant) arm on the conserved serine at the N-terminus of helix II (holo form); 4'-phosphopantetheine (Ppant) arm on the conserved serine at the N-terminus of helix II (holo form)
B3: AcpP-TNB− (E. coli AcpP with the Ppant thiol as mixed disulfide with 2-nitro-5-thiobenzoate) (natural protein, UniProt P0A6A8 1-78, looked up)
chain: B2 chain
modifications: 4'-phosphopantetheine arm on the conserved serine; its terminal thiol is a mixed disulfide with 2-nitro-5-thiobenzoate (TNB−)
notes: E. coli fatty acid synthase acyl carrier protein AcpP, UniProt P0A6A8; also called ACP-TNB−; AcpP-TNB− adduct; source: E. coli BAP1, purified (Ni-NTA), converted to holo form with Sfp R4-4, treated with DTNB, desalted (PD-10)
B4: holo-AcpP (E. coli FAS acyl carrier protein, 4'-phosphopantetheine arm installed) (natural protein, UniProt P0A6A8 1-78, looked up)
chain: B2 chain
modifications: 4'-phosphopantetheine (Ppant) arm on the conserved serine at the N-terminus of helix II (holo form)
notes: E. coli fatty acid synthase acyl carrier protein AcpP, UniProt P0A6A8; N- and C-terminal His6, from pKJ5535 or pTL14; AUC section gives 12.3 kDa for AcpP; also called E. coli ACP; source: E. coli BAP1, purified (Ni-NTA); converted to holo form on resin with Sfp R4-4 and coenzyme A

Series [1] concerns the molecule itself. Briefly: AUC; sedimentation velocity of each protein alone; FabF 10-36 uM, holo-AcpP 345-488 uM, holo-ACT ACP (wild type) 98-196 uM; 20 mM Tris-HCl pH 8.0, 150 mM NaCl, 1 mM DTT, 20 C.
Series [2] has as its target T1, holo-AcpP (E. coli FAS acyl carrier protein, 4'-phosphopantetheine arm installed) (E. coli), P0A6A8.
T1 chain: B2 chain
The description is as above. The conditions noted are these: remark: other sources report otherwise.

Series [3] addresses B1. As to the kind of experiment: colorimetric read-out of the cross-linking (TNB2− release, A412); ACP-TNB− mixed with FabF at ACP-TNB:FabF molar ratios 0.2:1 to 3:1; 50 mM sodium phosphate pH 7.6, 20 min, room temperature; A412 of the reaction mixture. Conditions: both partners purified.
The target in series [4] is B1. As to the kind of experiment: AUC; sedimentation velocity titration; FabF constant at 16 uM, AcpP 0-230 uM or ACT ACP 0-250 uM; 20 mM Tris-HCl pH 8.0, 150 mM NaCl, 1 mM DTT, 20 C; s(w) and EPT s(w) fast isotherms fitted globally to A + B <-> AB. The conditions noted are these: both partners purified.

The values that follow come from article PMC6821831, “Colorimetric Assay Reports on Acyl Carrier Protein Interactions” (Scientific Reports, 2019).

The stoichiometry N is a count of units in the complex or per binding partner. In general, Kd refers to the constant that tells how readily two partners part at equilibrium.

For B1, in series [1], the “stoichiometry N” value stood at 2.
B2 returned a stoichiometry N in series [2] of 4.
Take B3: in series [3], the “stoichiometry N” value came to 1.
Regarding B4, the Kd in series [4] worked out at 6.4 ± 2 µM.
